{"source": "the DeepSol protein solubility set", "data": [{"test": "soluble on expression in E. coli; label from the status in PepcDB or PDB records", "values": [{"sequence": "KDETVGVGVLSEPHARLLEIAKEEVKKQHIELRIVEFTNYVALNEAVMRGDILMNFFQHVPHMQQFNQEHNGDLVSVGNVHVEPLALYSRTYRHVSDFPAGAVIAIPNDSSNEARALRLLEAAGFIRMRAGSGLFATVEDVQQNVRNVVLQEVESALLPRVFDQVDGAVINGNYAIMAGLSARRDGLAVEPDASAYANVLVVKRGNEADARVQAVLRALCGGRVRTYLKERYKGGEVAPAL", "soluble on expression in E. coli": "soluble"}, {"sequence": "MKISTQSEVEGVLIKALSEGKGIQHVELALKDLPAFDRKRARTTAITEVLTAASVAQQEAFEQSPSVEGKKWKHSGGKGIEPRSSHIELSGKVVQINETFTIPGSGELAKYPRDTDLSASERIHCHCALGPAVNEEIL", "soluble on expression in E. coli": "not soluble"}, {"sequence": "MSLEEDIQKQIIAAKEEAHDETIWGKPANDIITGIGNNSGVRPQRAIWEMVQNARDVSLNGKADIVFERQHDCFIFQHNGISFTNNTLEALILQTSSKVRNDSVQVGQYGTGFLTTHKLGLKFTLSSSVQLLENEQLFHHFSNFLIDRSSTDKKQMRDSLKKQIKITEEWARNPTIVSGPSSLTTFRYIQEHEVEKMNTKEAFKASSALAPYVIALNPCVNSISFVDNVEDCKELYIRKSTEIINTCDFYNVVKVTIDKCETESCDFTVLMLQSKETVEESGEPKVIVILPIKELESKSVAFALSKDVPNLFIYLPLLGTEQWGLNFIFHSPLFTCDKDSRDSLRFVGNGQNNDVDAERNKGIIQLADVIVSHYITENLSNIQDCMYLAKVAFNLHNSDEALANYYKSLQSSWVKKYESFPFVITKNGNIITRQAKVFDKELFDACLENKDLLTAVYNVTVQIYGTDYLPLETNMLFWSETLLQWYEAESFNPHLIHLSDIVEYIDKNNITTIGEENLWCIDNYIANSKQIGLFTKYKLLPTKNGELRVREDLLNPIIHDESLLKILDSLLPNDVASFIHTRFVLFEDVKIEEYDHNKVKESMRLLVSELSDLQKGHEIYRTNILAGLDVDSNKYEQNKLSDNHINALMGFYAYIVNIGGEAFQYKMIHLLADFYNIDLKSGEAYIKEIYDWRTVAPLLIKDALFRFTLMDSQKQAENAEWVRQMVIALYNYSDYRTYLDKYTVYPNEMDKYCYSKKISKSVNITNDLIALYDKIVNNENGENMCKSIKCVLLKNTYNDYFVENATIEGSSLAEKIMLEIKREGAYPDISANKWKQQILDIIAKQDKDVYWASIFGEIDSSKGAILLSVIQEKEKKDSILSLIRVSDTKKLKALAEVAEDDNLARIIELGKAALRDEMNSEADFEYKKKLGEYVEELIRKEIDSKLKAGSHIMEVLSQQDGQDIIILLDGTAIYYIEVKSRWSQKDSVLMSALQFRTSVEEKTHYALCEVDMITYNRENVDKHEFPDVEETINRISAIMNIGVLNETLKDTLNQDSDQVHVGGDYKVVVPQTVWEEHGKHFNELVEEIKKIVEEKEGHHHHHH", "soluble on expression in E. coli": "soluble"}, {"sequence": "MATIHPPAYLLDQAKRRFTPSFNNFPGMSLVEHMLLNTKFPEKKLAEPPPGSGLKPVVGDAGLPILGHMIEMLRGGPDYLMFLYKTKGPVVFGDSAVLPGVAALGPDAAQVIYSNRNKDYSQQGWVPVIGPFFHRGLMLLDFEEHMFHRRIMQEAFVRSRLAGYLEQMDRVVSRVVADDWVVNDARFLVYPAMKALTLDIASMVFMGHEPGTDHELVTKVNKAFTITTRAGNAVIRTSVPPFTWWRGLRARELLENYFTARVKERREASGNDLLTVLCQTEDDDGNRFSDADIVNHMIFLMMAAHDTSTSTATTMAYQLAAHPEWQQRCRDESDRHGDGPLDIESLEQLESLDLVMNESIRLVTPVQWAMRQTVRDTELLGYYLPKGTNVIAYPGMNHRLPEIWTDPLTFDPERFTEPRNEHKRHRYAFTPFGGGVHKCIGMVFDQLEIKTILHRLLRRYRLELSRPDYQPRWDYSAMPIPMDGMPIVLRPR", "soluble on expression in E. coli": "not soluble"}, {"sequence": "MGIVSAASLIKVINEKQLKMAQDQNPLTALPGNRAIGGFIADSCSDGDETRFFCYCDFDNFKPFNDKYGFNAGDHAITLFSALMRRYFFAGDCFLGHIGGDDFFIGVRDWSVEELMEILERLLSDFHDDVAGLYSDEDRAAGCMKGQDRNGLEHHHHHH", "soluble on expression in E. coli": "soluble"}, {"sequence": "MKKLQIAVGIIRNENNEIFITRRAADAHMANKLEFPGGKIEMGETPEQAVVRELQEEVGITPQHFSLFEKLEYEFPDRHITLWFWLVERWEGEPWGKEGQPGEWMSLVGLNADDFPPANEPVIAKLKRL", "soluble on expression in E. coli": "soluble"}, {"sequence": "MSLNDIIEQLQELSETVPVPLELPTFEQLVEVEEQILIGLPNDLKEFLMYGSDVIYGTLEPVTAADPSSHTYLPEVACYAWSIGLPREQIAICQIGDSFYCIDEESQVMFWKKGRFSDKVWESFWHWAEDVWLNREGHHHHHH", "soluble on expression in E. coli": "soluble"}, {"sequence": "MAEITEVRIYKSKGNGSVKAYASVSFDNEFVVKGLKVVEGEKGLWVSMPSRRMKDGSFQDVFHPVSREARDKIVDAVLKAYQEQE", "soluble on expression in E. coli": "not soluble"}, {"sequence": "MNRRMMLASAALLLAPLAAQAQTRDVSVTIYNSNLALVEDARPLDLKAGRQKLEFKDVSAAIRPETVSLSAPGVTILEQNFDYDLLTPDKLMEKAVGQKVKIVRTNPGDGKETTEVATVLAANQGVVLKIGDRIEVLRDDGVPTRVIFDKVPETLRARPTLSVSVEAAGAGTRQAKLSYLTSGLSWKADYVALFDEAKSTMDLQGWITLSNNSGTPFENARTQLVAGDVNQLNDGGYRSSRSPGMISAGTESGVGERVADYYVYPLPERTTIASNQNKQVGFLSAQGVTAKKVYEVREGWFTSQAEPTKAVVAIQFSNARLAGLGAQLPMGTMRVYMRDAAGDPKFVGENAIGHTPAGSELSIKTGEAFDVSGQATLVAESRVSKRLTRYEMKYLLRNAKDQPVTVELRQGGLGRDSTVKAESLKGRRIDAGTLGWSVPVPANGETVLTFTVETGWLEHHHHHH", "soluble on expression in E. coli": "soluble"}, {"sequence": "MGSDKIHHHHHHVDTGNRPSILRMPAQEDFVRFKPGFGTRFLLTVDTEEEFDWSKPLDRTSHGLHHVPRLAKFQQFCEGVGVVPVYLVDFPVASDPRAADILRDAVHAGKAEIGVQLHPWVSPPHDEDVNVHNSFAGNLAPELERAKFRKLRDTIEQAFGVGPLIYRAGRYGVGPATASILSDCAIAIDTSVRSRFDYSSAGGPNFREYPLRPWWIDKRNGLMEMPLTTVFSGLLRQQGQTIYPALWRVPRLRGALARIGMLERIPLTPEGVTLDEAIKGIDMALDDGLEMLVFSFHSPSLCPGHTPYVRDESDLDLFYAWWRGVLTYMQQRNVKPTCVREIMEAAEI", "soluble on expression in E. coli": "not soluble"}, {"sequence": "MGSDKIHHHHHHMRKIPPLRALQVFEAAARLQHFSRAAQELCITQSAVSHQVRLLEEHFALPLFRREGRSLRLTDKGEQLFQETARIFNELGELNLRLLGEKPEALRLAVYSSFAVKWLIPRLSGFRRLHPGIQVRLDMITEDPVLSHSSADMFITGQQDQKGYWQQLLHAERLIPVCSPELISSSDKLDLDWLSTQQLLTVDEGPLGLDWQRWFEHHRVAQPEEEQQQLFSHVLMAIEAAIAGQGVALASDFMVLDDIAKQRLVALPFAGIDTGFEFNFLCKQRRLQEPAIAAFVHWLTQQH", "soluble on expression in E. coli": "not soluble"}, {"sequence": "MSLRGIRMKDYDLIVIGTGSGMNYVNSIIDSNPKMKIAVIDKDEPGGICLTRGCIPSKLLLYPAELVRDLETAPLFGIKLEIKDIEFRTIMERMRKRIGEDIEMIRQGLTENDYLDYYPETAEFISPYTLKAGDEILHSEMIFLCTGSKPAVPPVRGLEEAGYLTSDTVLGLNECPKSLAILGGSYIGAEYGHFFSAMGAEVTVIGRNQHFLPQEEPEVSELARIKMSEYMRILTNHEAIEVRKEKGGQKTVIAKDRDSGEETEVTADEILVATGRAPNNDILHPEKAGIKTDPHGWILVNEYLETSQPNIWAFGDANGKYLLKHVGNYESGIVYLNAIMQEKVKVDYHAVPHAVFSYPEIAGVGMSEKEAIEEFGEKRVIIGFKLFEDTAKGSAMETRDYFVKVILDGLEDKILGAHIIGPHASVLIHQIIPLMYTASRSAKPMMQMMDIHPALSEVVKRAFYSRLSPEHYHHVMKHLGLEDEDSVEGHHHHHH", "soluble on expression in E. coli": "soluble"}, {"sequence": "SGALWDVPSPAATQKATLSEGVYRIMQRGLFGKTQVGVGIHMEGVFHTMWHVTRGSVICHETGRLEPSWADVRNDMISYGGGWRLGDKWDKEEDVQVLAIEPGKNPKHVQTKPGLFKTLTGEIGAVTLDFKPGTSGSPIINKKGKVIGLYGNGVVTKSGDYVSAITQAERIGEGPDYEVDEDIFRKKRLTIMDLHPGAGKTKRILPSIVREALKRRLRTLILAPTRVVAAEMEEALRGLPIRYQTPAVKSDHTGREIVDLMCHATFTTRLLSSTRVPNYNLIVMDEAHFTDPCSVAARGYISTRVEMGEAAAIFMTATPPGSTDPFPQSNSPIEDIEREIPERSWNTGFDWITDYQGKTVWFVPSIKAGNDIANCLRKSGKRVIQLSRKTFDTEYPKTKLTDWDFVVTTDISEMGANFRAGRVIDPRRCLKPVILTDGPERVILAGPIPVTPASAAQRRGRIGRNPAQEDDQYVFSGDPLKNDEDHAHWTEAKMLLDNIYTPEGIIPTLFGPEREKTQAIDGEFRLRGEQRKTFVELMRRGDLPVWLSYKVASAGISYKDREWCFTGERNNQILEENMEVEIWTREGEKKKLRPKWLDARVYADPMALKDFKEFASGRK", "soluble on expression in E. coli": "soluble"}, {"sequence": "MGSDKIHHHHHHMRVFVARQPIFNRKEQVVAYELLYRESEENVYSAKDGDQATTDLVINSFLNIGIEKLTEGKRCFVNFTESLMFSNLPTSFNPKQLVIEILEDIPITPALISRCKELKKMGYMLALDDFYAINPQDEDLLEKLMSYIDILKIDFLKTTRMERRTILQTYGCRGLIFLAEKVETRKEYKQAVQDGFQLFQGYFFSEPRIISGHDLSTHFYSYYELLNELSKEQPNIKRVTEYIERDLSLSYQILKFLNSSHSRLSQKIESIQQAIMLLGFNEIKRWIYILSFKDLSRKGHSSKHEIIKISLIRAKLCELLARKTSRPQPASYMLIGMFSLIDTLLHREIEEIVQELPLKDEVGQALLGHQNDYYQMLELVKLIESNNWDTCSELGNQLDKEEAYECYLEALEWCHNLMDAK", "soluble on expression in E. coli": "not soluble"}, {"sequence": "PRLEFEKPVIELQTKIAELKKFTQDSDMDLSAEIERLEDRLAKLQDDIYKNLKPWDRVQIARLADRPTTLDYIEHLFTDFFECHGDRAYGDDEAIVGGIAKFHGLPVTVIGHQRGKDTKENLVRNFGMPHPEGYRKALRLMKQADKFNR", "soluble on expression in E. coli": "not soluble"}, {"sequence": "MVIMVNTEYIPGKRIVKVFGTIWGITVRSRGLGGNLVAGLRSLAGGEIKEYTKMLSDARNTAMERLQSAAEQIGANAVINVRFDSSDIGQVMTEIVAYGTAVLVE", "soluble on expression in E. coli": "soluble"}, {"sequence": "MSLDVAALVSGGVDSSVVVHRLCEEGYKPAIFYIRIGMEDKDGYIDCPAEEDIELTTLIARRYGCPFEVVDLHKEYWERVVSYTVETVRRGLTPNPDMMCNKLIKFGCFEERWGYQFDRIATGHYATTDLLNGKTYLSTAKDPVKDQTDFLAQINFAQISKLMFPIGHLLKSEVRAIANAAGLPSAKRKDSQGICFLGKIDYNDFIERYLGKKEGRIIELETGKVIGRHQGYWFHTIGQRKGLGLSGGPWFVVKKDIKRNIILVSRGYDPDAQYGKTIEMETFDFITEDAYEAGYWNREDATPVTFKIRHTPEFTRGLLYKGEKGYRLESEERIQGIAPGQYCVIYDEDHHLCYGSGMITKGREGHHHHHH", "soluble on expression in E. coli": "soluble"}, {"sequence": "MRALALDVGLKRIGVALCIDKKIALPLDAVLRKNRNQAANEIKNLLKIHEISLLIVGIPKGGSSEEEMTRRIKHFVSLLEFDKEICFVDESGTSKEALGYGVANTRKKDGKLDSLSAFIMIKDYFALLEHHHHHH", "soluble on expression in E. coli": "not soluble"}, {"sequence": "MQQPINYIMNIMHLERDLKRLTSNWSSATGLSLNELRILVYVEQHPGIQIGDVANALNVAKASLAQNIGTLITQGWLKSQPIKQDRRLRVLTLTKAGQDRMKDVDAQLTKSLDTTPATQLADQLSALQL", "soluble on expression in E. coli": "not soluble"}]}]}
